Biological target: GLP1 receptor (human) (UniProt P43220)
Sequence (P43220 24-463): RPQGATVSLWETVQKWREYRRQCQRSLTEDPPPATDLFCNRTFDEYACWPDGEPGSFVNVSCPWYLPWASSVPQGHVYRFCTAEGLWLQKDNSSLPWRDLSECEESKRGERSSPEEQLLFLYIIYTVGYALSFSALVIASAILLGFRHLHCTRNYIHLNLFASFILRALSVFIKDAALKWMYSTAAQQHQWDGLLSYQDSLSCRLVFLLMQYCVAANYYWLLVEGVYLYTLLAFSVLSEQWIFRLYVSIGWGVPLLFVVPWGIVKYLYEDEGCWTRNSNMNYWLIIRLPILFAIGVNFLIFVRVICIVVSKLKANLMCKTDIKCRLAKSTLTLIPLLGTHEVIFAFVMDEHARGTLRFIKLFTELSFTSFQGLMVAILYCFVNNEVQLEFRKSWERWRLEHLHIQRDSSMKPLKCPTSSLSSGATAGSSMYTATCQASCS

EC50 of CRE-luciferase expression in HEK293 cells stably expressing GLP1R: 2.2 µM
Substance: (D)-GLP1 peptide (designed binder)

From paper PMC5816147
